In PMC7660911:
“And” between values parts separate entries of the source, which are not always exact repeats. Identical values can stand only once.

Molecular target: pVHL172-BirA(R118G)-HA fusion protein (human) (UniProt P40337)
Assay: proximity labelling; BioID with truncated VHL-BirA constructs in HeLa and 786-O cells; blots quantified as biotinylated prefoldin / pVHL expression level, full-length VHL213-BirA set as 1 (Fig 1C)

Prefoldin subunit 1 (from UniProt O60925 1-122) (natural protein)
fold lower binding than with the exons 2&3 version: 4 fold and 5 fold

Prefoldin subunit 3 (from UniProt P61758-1 1-197) (natural protein)
fold lower binding than with the exons 2&3 version: 4 fold and 5 fold
